Data set [1] concerns the molecule itself. The data set can be described thus: AUC; multi-speed sedimentation equilibrium; monomer to trimer; three concentrations (0.125, 0.25, 0.5 mg/ml); 14,000, 18,000 and 22,000 rpm; 20 °C; 10 mM Tris/HCl pH 7.8, 150 mM NaCl; fit in SEDPHAT.
Data set [2] concerns the molecule itself. The data set can be described thus: AUC; sedimentation velocity, c(S) analysis, and isotherm of the weight-averaged S fit to a monomer-trimer model (monomer to trimer, RhT5 1–261dCC); 20 °C; 10 mM Tris/HCl pH 7.8, 150 mM NaCl; 50 krpm (RhT5 94–141, RhT5 88–261dCC) or 38 krpm (RhT5 1–261dCC).

B1: RhT5 88–261dCC (wild type) (domain or fragment, Rhesus macaque)
chain: PEEGQKVDHCARHGEKLLLFCQEDSKVICWLCERSQEHRGHHTFLMEEVAQEYHVKLQTALEMLRQKGGDPYMRELISELEHRLQGSMMDLLQGVDGIIKRIEN
notes: Trim5α, Rhesus macaque, Bbox-CC, residues Pro88-Lys154; Trim5α, Rhesus macaque, CC-L2, residues Tyr229-Asn261; In a monomer-trimer equilibrium; Vector pET47b or pET49b; IMAC purification, so the His-tag is surmised; also called RhT5 88–216dCC (as printed once); source: E. coli BL21(DE3), purified (IMAC, 3C cleavage, anion exchange, SEC); not shown: His-tag, N-terminal, cleaved
Regarding B1, the “stoichiometry N” value in data set [1] came out at 3.

B2: RhT5 1–261dCC (RhT5 1–261Δ155–228), wild type (domain or fragment, Rhesus macaque)
chain: MASGILLNVKEEVTCPICLELLTEPLSLHCGHSFCQACITANHKKSMLYKEGERSCPVCRISYQPENIQPNRHVANIVEKLREVKLSPEEGQKVDHCARHGEKLLLFCQEDSKVICWLCERSQEHRGHHTFLMEEVAQEYHVKLQTALEMLRQKGGDPYMRELISELEHRLQGSMMDLLQGVDGIIKRIEN
notes: Trim5α, Rhesus macaque, RING, L1, Bbox and start of the coiled-coil, residues 1–154; In a monomer-trimer equilibrium (trimer mass printed 67.8 kDa); also called Wt; source: expressed in LB broth with IPTG; purified (amylose resin, on column 3C protease cleavage, anion exchange); not shown: MBP, C-terminal, cleaved
For the protein B2, the “stoichiometry N” value in data set [2] amounted to 3.

B3: RhT5 94–141 (Trim5α Bbox domain alone, residues 94–141) (domain or fragment, Rhesus macaque, UniProt Q0PF16 94-141, looked up)
chain: VDHCARHGEKLLLFCQEDSKVICWLCERSQEHRGHHTFLMEEVAQEYH
notes: Trim5α, Rhesus macaque, Bbox domain, residues 94–141; Cloned into pET47b (N-terminal His-tag) or pET49b (N-terminal GST-tag); purified by IMAC, so the His-tag vector is surmised; also called RhT5α 94–141; Bbox only construct; source: E. coli BL21(DE3), purified (IMAC, 3C cleavage, anion exchange, SEC); not shown: His-tag, N-terminal, cleaved
With B3, the “stoichiometry N” value in data set [2] was found to be 2.
